From the MegaScale stability set (Tsuboyama et al. 2023)

B1: EEHEE_rd4_0469 (parent)
chain: ITIHVNGVTYHFDNPEEAEKFAQKMAKTYQLKMEIHNGEFHME

Variants of: B1
Assay: folding stability dG (cDNA display proteolysis); higher = more stable
Settings: PBS, room temperature

Row | Variant | folding stability dG
1 | ITIHVNAVTYHFDNPEEAEKFAQKMAKTYQLKMEIHNGEFHME [G7A] | 0.95 kcal/mol
2 | ITIHVNYVTYHFDNPEEAEKFAQKMAKTYQLKMEIHNGEFHME [G7Y] | 1.26 kcal/mol
3 | ITIHVNPVTYHFDNPEEAEKFAQKMAKTYQLKMEIHNGEFHME [G7P] | -0.022 kcal/mol
4 | ITIHVNNVTYHFDNPEEAEKFAQKMAKTYQLKMEIHNGEFHME [G7N] | 1.07 kcal/mol
5 | ITIHVNQVTYHFDNPEEAEKFAQKMAKTYQLKMEIHNGEFHME [G7Q] | 0.959 kcal/mol
6 | ITIHVNSVTYHFDNPEEAEKFAQKMAKTYQLKMEIHNGEFHME [G7S] | 1.07 kcal/mol
7 | ITIHVNMVTYHFDNPEEAEKFAQKMAKTYQLKMEIHNGEFHME [G7M] | 1.22 kcal/mol
8 | ITIHVNFVTYHFDNPEEAEKFAQKMAKTYQLKMEIHNGEFHME [G7F] | 1.65 kcal/mol
9 | ITIHVNVVTYHFDNPEEAEKFAQKMAKTYQLKMEIHNGEFHME [G7V] | 1.83 kcal/mol
10 | ITIHVNEVTYHFDNPEEAEKFAQKMAKTYQLKMEIHNGEFHME [G7E] | 0.803 kcal/mol
11 | ITIHVNIVTYHFDNPEEAEKFAQKMAKTYQLKMEIHNGEFHME [G7I] | 2.4 kcal/mol
12 | ITIHVEGVTYHFDNPEEAEKFAQKMAKTYQLKMEIHNGEFHME [N6E] | 1.2 kcal/mol
13 | ITIHVTGVTYHFDNPEEAEKFAQKMAKTYQLKMEIHNGEFHME [N6T] | 1 kcal/mol
14 | ITIHVDGVTYHFDNPEEAEKFAQKMAKTYQLKMEIHNGEFHME [N6D] | 1.11 kcal/mol
15 | ITIHVYGVTYHFDNPEEAEKFAQKMAKTYQLKMEIHNGEFHME [N6Y] | 1.73 kcal/mol
16 | ITIHVWGVTYHFDNPEEAEKFAQKMAKTYQLKMEIHNGEFHME [N6W] | 1.88 kcal/mol
17 | ITIHVIGVTYHFDNPEEAEKFAQKMAKTYQLKMEIHNGEFHME [N6I] | 1.51 kcal/mol
18 | ITIHVKGVTYHFDNPEEAEKFAQKMAKTYQLKMEIHNGEFHME [N6K] | 1.37 kcal/mol
19 | ITIHVRGVTYHFDNPEEAEKFAQKMAKTYQLKMEIHNGEFHME [N6R] | 1.27 kcal/mol
20 | ITIHVGGVTYHFDNPEEAEKFAQKMAKTYQLKMEIHNGEFHME [N6G] | 1.14 kcal/mol

Row | Variant | folding stability dG
21 | ITIHVLGVTYHFDNPEEAEKFAQKMAKTYQLKMEIHNGEFHME [N6L] | 1.79 kcal/mol
22 | ITIHVSGVTYHFDNPEEAEKFAQKMAKTYQLKMEIHNGEFHME [N6S] | 1.07 kcal/mol
23 | ITIHVQGVTYHFDNPEEAEKFAQKMAKTYQLKMEIHNGEFHME [N6Q] | 1.26 kcal/mol
24 | ITIHVVGVTYHFDNPEEAEKFAQKMAKTYQLKMEIHNGEFHME [N6V] | 1.42 kcal/mol
25 | ITIHVAGVTYHFDNPEEAEKFAQKMAKTYQLKMEIHNGEFHME [N6A] | 1.3 kcal/mol
26 | ITIHVMGVTYHFDNPEEAEKFAQKMAKTYQLKMEIHNGEFHME [N6M] | 1.73 kcal/mol
27 | ITIHVPGVTYHFDNPEEAEKFAQKMAKTYQLKMEIHNGEFHME [N6P] | 0.4 kcal/mol
28 | ITIHVFGVTYHFDNPEEAEKFAQKMAKTYQLKMEIHNGEFHME [N6F] | 2.18 kcal/mol
29 | ITIHVHGVTYHFDNPEEAEKFAQKMAKTYQLKMEIHNGEFHME [N6H] | 1.35 kcal/mol
30 | ITIHVNGFTYHFDNPEEAEKFAQKMAKTYQLKMEIHNGEFHME [V8F] | 1.36 kcal/mol
31 | ITIHVNGHTYHFDNPEEAEKFAQKMAKTYQLKMEIHNGEFHME [V8H] | 1.11 kcal/mol
32 | ITIHVNGNTYHFDNPEEAEKFAQKMAKTYQLKMEIHNGEFHME [V8N] | 1.12 kcal/mol
33 | ITIHVNGDTYHFDNPEEAEKFAQKMAKTYQLKMEIHNGEFHME [V8D] | 1.01 kcal/mol
34 | ITIHVNGETYHFDNPEEAEKFAQKMAKTYQLKMEIHNGEFHME [V8E] | 1.09 kcal/mol
35 | ITIHVNGLTYHFDNPEEAEKFAQKMAKTYQLKMEIHNGEFHME [V8L] | 1.19 kcal/mol
36 | ITIHVNGGTYHFDNPEEAEKFAQKMAKTYQLKMEIHNGEFHME [V8G] | 0.858 kcal/mol
37 | ITIHVNGATYHFDNPEEAEKFAQKMAKTYQLKMEIHNGEFHME [V8A] | 1.11 kcal/mol
38 | ITIHVNGKTYHFDNPEEAEKFAQKMAKTYQLKMEIHNGEFHME [V8K] | 1.38 kcal/mol
39 | ITIHVNGITYHFDNPEEAEKFAQKMAKTYQLKMEIHNGEFHME [V8I] | 1.13 kcal/mol
40 | ITIHVNGMTYHFDNPEEAEKFAQKMAKTYQLKMEIHNGEFHME [V8M] | 1.18 kcal/mol

Row | Variant | folding stability dG
41 | ITIHHNGVTYHFDNPEEAEKFAQKMAKTYQLKMEIHNGEFHME [V5H] | 0.711 kcal/mol
42 | ITIHFNGVTYHFDNPEEAEKFAQKMAKTYQLKMEIHNGEFHME [V5F] | 1.24 kcal/mol
43 | ITIHQNGVTYHFDNPEEAEKFAQKMAKTYQLKMEIHNGEFHME [V5Q] | 0.252 kcal/mol
44 | ITIHWNGVTYHFDNPEEAEKFAQKMAKTYQLKMEIHNGEFHME [V5W] | 1.2 kcal/mol
45 | ITIHDNGVTYHFDNPEEAEKFAQKMAKTYQLKMEIHNGEFHME [V5D] | 0.38 kcal/mol
46 | ITIHNNGVTYHFDNPEEAEKFAQKMAKTYQLKMEIHNGEFHME [V5N] | 0.312 kcal/mol
47 | ITIHENGVTYHFDNPEEAEKFAQKMAKTYQLKMEIHNGEFHME [V5E] | 0.203 kcal/mol
48 | ITIHSNGVTYHFDNPEEAEKFAQKMAKTYQLKMEIHNGEFHME [V5S] | 0.42 kcal/mol
49 | ITIHKNGVTYHFDNPEEAEKFAQKMAKTYQLKMEIHNGEFHME [V5K] | 0.112 kcal/mol
50 | ITIHPNGVTYHFDNPEEAEKFAQKMAKTYQLKMEIHNGEFHME [V5P] | -0.199 kcal/mol
51 | ITIHYNGVTYHFDNPEEAEKFAQKMAKTYQLKMEIHNGEFHME [V5Y] | 0.92 kcal/mol
52 | ITIHANGVTYHFDNPEEAEKFAQKMAKTYQLKMEIHNGEFHME [V5A] | 0.938 kcal/mol
53 | ITIHCNGVTYHFDNPEEAEKFAQKMAKTYQLKMEIHNGEFHME [V5C] | 1.77 kcal/mol
54 | ITIHGNGVTYHFDNPEEAEKFAQKMAKTYQLKMEIHNGEFHME [V5G] | 0.398 kcal/mol
55 | ITIHMNGVTYHFDNPEEAEKFAQKMAKTYQLKMEIHNGEFHME [V5M] | 0.927 kcal/mol
56 | ITIHINGVTYHFDNPEEAEKFAQKMAKTYQLKMEIHNGEFHME [V5I] | 1.14 kcal/mol
57 | ITIHTNGVTYHFDNPEEAEKFAQKMAKTYQLKMEIHNGEFHME [V5T] | 0.534 kcal/mol
58 | ITIHRNGVTYHFDNPEEAEKFAQKMAKTYQLKMEIHNGEFHME [V5R] | 0.306 kcal/mol
59 | ITIHLNGVTYHFDNPEEAEKFAQKMAKTYQLKMEIHNGEFHME [V5L] | 0.899 kcal/mol
